In article PMC9482650, “Quantitative fragmentomics allow affinity mapping of interactomes” (Nature Communications, 2022):

T1: DLG3_3, Q92796
T1 sequence (Q92796 374-475, limits assumed, looked up): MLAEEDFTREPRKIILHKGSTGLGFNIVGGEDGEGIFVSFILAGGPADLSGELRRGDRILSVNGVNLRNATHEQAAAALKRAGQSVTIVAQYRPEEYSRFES

T2: ARHGEF11, O15085
T2 sequence (O15085 42-136, limits assumed, looked up): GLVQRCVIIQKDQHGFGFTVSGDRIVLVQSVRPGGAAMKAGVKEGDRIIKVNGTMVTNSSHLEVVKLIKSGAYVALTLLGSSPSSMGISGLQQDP

T3: APBA2_2, Q99767
T3 sequence (Q99767 654-744, limits assumed, looked up): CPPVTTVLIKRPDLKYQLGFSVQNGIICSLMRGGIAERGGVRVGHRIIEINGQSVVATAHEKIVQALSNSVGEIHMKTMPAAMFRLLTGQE

T4: SNTB1, Q13884
T4 sequence (Q13884 107-205, limits assumed, looked up): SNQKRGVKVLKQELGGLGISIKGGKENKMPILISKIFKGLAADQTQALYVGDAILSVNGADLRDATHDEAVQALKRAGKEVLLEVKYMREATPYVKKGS

T5: MPP2, Q14168
T5 sequence (Q14168 180-250, limits assumed, looked up): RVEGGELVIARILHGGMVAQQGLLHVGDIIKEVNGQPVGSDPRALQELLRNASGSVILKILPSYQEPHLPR

T6: LNX2_3, Q8N448
T6 sequence (Q8N448 463-564, limits assumed, looked up): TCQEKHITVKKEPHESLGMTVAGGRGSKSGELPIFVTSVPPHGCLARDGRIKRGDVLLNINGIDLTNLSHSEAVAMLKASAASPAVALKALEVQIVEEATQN

T7: NHERF3_4, Q5T2W1
T7 sequence (Q5T2W1 373-468, limits assumed, looked up): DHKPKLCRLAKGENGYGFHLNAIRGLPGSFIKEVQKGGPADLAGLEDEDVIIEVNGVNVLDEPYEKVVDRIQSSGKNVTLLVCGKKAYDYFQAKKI

T8: GRIP1_2, Q9Y3R0
T8 sequence (Q9Y3R0 145-248, limits assumed, looked up): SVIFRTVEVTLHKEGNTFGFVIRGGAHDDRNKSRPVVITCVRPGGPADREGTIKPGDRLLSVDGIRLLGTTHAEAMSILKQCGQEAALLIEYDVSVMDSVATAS

T9: GRIP1_3, Q9Y3R0
T9 sequence (Q9Y3R0 247-346, limits assumed, looked up): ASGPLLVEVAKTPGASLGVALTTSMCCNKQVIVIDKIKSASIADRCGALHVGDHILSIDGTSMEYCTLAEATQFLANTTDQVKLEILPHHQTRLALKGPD

T10: MPP6, Q9NZW5
T10 sequence (Q9NZW5 125-219, limits assumed, looked up): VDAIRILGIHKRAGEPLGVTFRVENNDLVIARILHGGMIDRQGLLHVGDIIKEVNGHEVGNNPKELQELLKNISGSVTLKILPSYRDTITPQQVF

T11: GRIP1_7, Q9Y3R0
T11 sequence (Q9Y3R0 999-1096, limits assumed, looked up): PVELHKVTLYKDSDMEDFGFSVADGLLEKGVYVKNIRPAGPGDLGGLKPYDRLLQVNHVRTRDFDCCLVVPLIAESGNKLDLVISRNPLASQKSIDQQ

T12: DFNB31_1, Q9P202
T12 sequence (Q9P202 135-233, limits assumed, looked up): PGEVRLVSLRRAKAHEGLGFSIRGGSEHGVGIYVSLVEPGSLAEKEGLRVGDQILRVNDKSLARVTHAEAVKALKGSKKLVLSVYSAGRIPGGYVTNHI

T13: APBA2_1, Q99767
T13 sequence (Q99767 563-664, limits assumed, looked up): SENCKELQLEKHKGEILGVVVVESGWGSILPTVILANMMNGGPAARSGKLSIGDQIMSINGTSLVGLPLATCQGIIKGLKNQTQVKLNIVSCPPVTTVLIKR


Each binder was assayed against NOS1, P29475 (assay: holdup assay). Settings: plain residues with an end cap or a label only (N-terminal biotin on a linker: ado-ado).
Parameters: key: below the threshold = too weak to quantify, mostly under pKd 3.1 to 4

Sequence of NOS1, P29475 (P29475 9-101): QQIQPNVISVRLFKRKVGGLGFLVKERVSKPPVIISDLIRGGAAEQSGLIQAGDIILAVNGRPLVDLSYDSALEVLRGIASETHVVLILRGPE

| pKd | Binder |
| --- | --- |
| below the threshold | SRSVVESDEL [MYPN, Q86TC9] |

What follows are binders tested against GRID2IP_1, A4D2P6 (assay: holdup assay). Settings: plain residues with an end cap or a label only (N-terminal biotin on a linker: ado-ado).
Parameters: key: below the threshold = too weak to quantify, mostly under pKd 3.1 to 4

Sequence of GRID2IP_1, A4D2P6 (A4D2P6 1-87): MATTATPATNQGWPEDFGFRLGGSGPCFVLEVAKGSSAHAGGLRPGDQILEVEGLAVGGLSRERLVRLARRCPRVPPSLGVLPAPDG

| pKd | Binder |
| --- | --- |
| below the threshold | SRSVVESDEL [MYPN, Q86TC9] |

Each binder was assayed against DLG1_3, Q12959 (assay: holdup assay). Settings: plain residues with an end cap or a label only (N-terminal biotin on a linker: ado-ado).
Parameters: key: below the threshold = too weak to quantify, mostly under pKd 3.1 to 4

Sequence of DLG1_3, Q12959 (Q12959 457-571): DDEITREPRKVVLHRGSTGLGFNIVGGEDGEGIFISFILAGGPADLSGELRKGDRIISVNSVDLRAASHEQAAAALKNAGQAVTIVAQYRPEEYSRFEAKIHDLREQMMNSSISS

| pKd | Binder |
| --- | --- |
| below the threshold | SRSVVESDEL [MYPN, Q86TC9] |

These binders were tested against IL16_4, Q14005 (assay: holdup assay). Settings: plain residues with an end cap or a label only (N-terminal biotin on a linker: ado-ado).
Parameters: key: below the threshold = too weak to quantify, mostly under pKd 3.1 to 4

Sequence of IL16_4, Q14005 (Q14005 1229-1329): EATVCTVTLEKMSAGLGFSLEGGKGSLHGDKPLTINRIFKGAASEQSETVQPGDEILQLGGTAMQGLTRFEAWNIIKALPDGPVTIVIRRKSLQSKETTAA

| pKd | Binder |
| --- | --- |
| below the threshold | SRSVVESDEL [MYPN, Q86TC9] |

What follows are binders tested against T1, DLG3_3, Q92796 (assay: holdup assay). Settings: plain residues with an end cap or a label only (N-terminal biotin on a linker: ado-ado).
Parameters: key: below the threshold = too weak to quantify, mostly under pKd 3.1 to 4

| pKd | Binder |
| --- | --- |
| below the threshold | SRSVVESDEL [MYPN, Q86TC9] |

The binders below were run against DLG4_1, P78352 (assay: holdup assay). Settings: plain residues with an end cap or a label only (N-terminal biotin on a linker: ado-ado).
Parameters: key: below the threshold = too weak to quantify, mostly under pKd 3.1 to 4

Sequence of DLG4_1, P78352 (P78352 62-152): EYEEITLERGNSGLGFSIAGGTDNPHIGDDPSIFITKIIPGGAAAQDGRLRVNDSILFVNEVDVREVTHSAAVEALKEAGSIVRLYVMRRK

| pKd | Binder |
| --- | --- |
| below the threshold | SRSVVESDEL [MYPN, Q86TC9] |

The binders below were run against T2, ARHGEF11, O15085 (assay: holdup assay). Settings: plain residues with an end cap or a label only (N-terminal biotin on a linker: ado-ado).
Parameters: key: below the threshold = too weak to quantify, mostly under pKd 3.1 to 4

| pKd | Binder |
| --- | --- |
| 3.74 | SRSVVESDEL [MYPN, Q86TC9] |

The binders below were run against GORASP2, Q9H8Y8 (assay: holdup assay). Settings: plain residues with an end cap or a label only (N-terminal biotin on a linker: ado-ado).
Parameters: key: below the threshold = too weak to quantify, mostly under pKd 3.1 to 4

| pKd | Binder |
| --- | --- |
| below the threshold | SRSVVESDEL [MYPN, Q86TC9] |

These binders were tested against CASK, O14936 (assay: holdup assay). Settings: plain residues with an end cap or a label only (N-terminal biotin on a linker: ado-ado).
Parameters: key: below the threshold = too weak to quantify, mostly under pKd 3.1 to 4

Sequence of CASK, O14936 (O14936 487-570): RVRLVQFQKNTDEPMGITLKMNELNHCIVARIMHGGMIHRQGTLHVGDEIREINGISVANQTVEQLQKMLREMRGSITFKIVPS

| pKd | Binder |
| --- | --- |
| below the threshold | SRSVVESDEL [MYPN, Q86TC9] |

Each binder was assayed against TJP1_3, Q07157 (assay: holdup assay). Settings: plain residues with an end cap or a label only (N-terminal biotin on a linker: ado-ado).
Parameters: key: below the threshold = too weak to quantify, mostly under pKd 3.1 to 4

Sequence of TJP1_3, Q07157 (Q07157 416-512): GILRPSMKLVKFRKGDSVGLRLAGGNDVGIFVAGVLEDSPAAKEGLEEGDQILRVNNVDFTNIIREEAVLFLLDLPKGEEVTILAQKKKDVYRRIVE

| pKd | Binder |
| --- | --- |
| below the threshold | SRSVVESDEL [MYPN, Q86TC9] |

What follows are binders tested against T3, APBA2_2, Q99767 (assay: holdup assay). Settings: plain residues with an end cap or a label only (N-terminal biotin on a linker: ado-ado).
Parameters: key: below the threshold = too weak to quantify, mostly under pKd 3.1 to 4

| pKd | Binder |
| --- | --- |
| below the threshold | SRSVVESDEL [MYPN, Q86TC9] |

The binders below were run against T4, SNTB1, Q13884 (assay: holdup assay). Settings: plain residues with an end cap or a label only (N-terminal biotin on a linker: ado-ado).
Parameters: key: below the threshold = too weak to quantify, mostly under pKd 3.1 to 4

| pKd | Binder |
| --- | --- |
| below the threshold | SRSVVESDEL [MYPN, Q86TC9] |

What follows are binders tested against T5, MPP2, Q14168 (assay: holdup assay). Settings: plain residues with an end cap or a label only (N-terminal biotin on a linker: ado-ado).
Parameters: key: below the threshold = too weak to quantify, mostly under pKd 3.1 to 4

| pKd | Binder |
| --- | --- |
| below the threshold | SRSVVESDEL [MYPN, Q86TC9] |

What follows are binders tested against T6, LNX2_3, Q8N448 (assay: holdup assay). Settings: plain residues with an end cap or a label only (N-terminal biotin on a linker: ado-ado).
Parameters: key: below the threshold = too weak to quantify, mostly under pKd 3.1 to 4

| pKd | Binder |
| --- | --- |
| below the threshold | SRSVVESDEL [MYPN, Q86TC9] |

What follows are binders tested against LNX1_3, Q8TBB1 (assay: holdup assay). Settings: plain residues with an end cap or a label only (N-terminal biotin on a linker: ado-ado).
Parameters: key: below the threshold = too weak to quantify, mostly under pKd 3.1 to 4

Sequence of LNX1_3, Q8TBB1 (Q8TBB1 500-596): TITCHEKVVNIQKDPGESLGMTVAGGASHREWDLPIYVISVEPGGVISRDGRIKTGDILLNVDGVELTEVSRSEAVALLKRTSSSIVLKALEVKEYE

| pKd | Binder |
| --- | --- |
| below the threshold | SRSVVESDEL [MYPN, Q86TC9] |

What follows are binders tested against T7, NHERF3_4, Q5T2W1 (assay: holdup assay). Settings: plain residues with an end cap or a label only (N-terminal biotin on a linker: ado-ado).
Parameters: key: below the threshold = too weak to quantify, mostly under pKd 3.1 to 4

| pKd | Binder |
| --- | --- |
| below the threshold | SRSVVESDEL [MYPN, Q86TC9] |

Each binder was assayed against MAST2, Q6P0Q8 (assay: holdup assay). Settings: plain residues with an end cap or a label only (N-terminal biotin on a linker: ado-ado).
Parameters: key: below the threshold = too weak to quantify, mostly under pKd 3.1 to 4

Sequence of MAST2, Q6P0Q8 (Q6P0Q8 1099-1202): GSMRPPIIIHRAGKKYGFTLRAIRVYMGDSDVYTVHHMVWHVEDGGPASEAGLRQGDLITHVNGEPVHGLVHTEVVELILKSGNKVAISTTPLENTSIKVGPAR

| pKd | Binder |
| --- | --- |
| 4.46 | SRSVVESDEL [MYPN, Q86TC9] |

The binders below were run against GIPC2, Q8TF65 (assay: holdup assay). Settings: plain residues with an end cap or a label only (N-terminal biotin on a linker: ado-ado).
Parameters: key: below the threshold = too weak to quantify, mostly under pKd 3.1 to 4

Sequence of GIPC2, Q8TF65 (Q8TF65 112-203): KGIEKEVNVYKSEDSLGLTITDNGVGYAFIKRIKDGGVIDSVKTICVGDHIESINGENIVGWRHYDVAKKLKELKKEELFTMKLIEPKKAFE

| pKd | Binder |
| --- | --- |
| below the threshold | SRSVVESDEL [MYPN, Q86TC9] |

These binders were tested against T8, GRIP1_2, Q9Y3R0 (assay: holdup assay). Settings: plain residues with an end cap or a label only (N-terminal biotin on a linker: ado-ado).
Parameters: key: below the threshold = too weak to quantify, mostly under pKd 3.1 to 4

| pKd | Binder |
| --- | --- |
| below the threshold | SRSVVESDEL [MYPN, Q86TC9] |

These binders were tested against T9, GRIP1_3, Q9Y3R0 (assay: holdup assay). Settings: plain residues with an end cap or a label only (N-terminal biotin on a linker: ado-ado).
Parameters: key: below the threshold = too weak to quantify, mostly under pKd 3.1 to 4

| pKd | Binder |
| --- | --- |
| below the threshold | SRSVVESDEL [MYPN, Q86TC9] |

The binders below were run against T10, MPP6, Q9NZW5 (assay: holdup assay). Settings: plain residues with an end cap or a label only (N-terminal biotin on a linker: ado-ado).
Parameters: key: below the threshold = too weak to quantify, mostly under pKd 3.1 to 4

| pKd | Binder |
| --- | --- |
| below the threshold | SRSVVESDEL [MYPN, Q86TC9] |

Each binder was assayed against T11, GRIP1_7, Q9Y3R0 (assay: holdup assay). Settings: plain residues with an end cap or a label only (N-terminal biotin on a linker: ado-ado).
Parameters: key: below the threshold = too weak to quantify, mostly under pKd 3.1 to 4

| pKd | Binder |
| --- | --- |
| below the threshold | SRSVVESDEL [MYPN, Q86TC9] |

What follows are binders tested against T12, DFNB31_1, Q9P202 (assay: holdup assay). Settings: plain residues with an end cap or a label only (N-terminal biotin on a linker: ado-ado).
Parameters: key: below the threshold = too weak to quantify, mostly under pKd 3.1 to 4

| pKd | Binder |
| --- | --- |
| below the threshold | SRSVVESDEL [MYPN, Q86TC9] |

These binders were tested against T13, APBA2_1, Q99767 (assay: holdup assay). Settings: plain residues with an end cap or a label only (N-terminal biotin on a linker: ado-ado).
Parameters: key: below the threshold = too weak to quantify, mostly under pKd 3.1 to 4

| pKd | Binder |
| --- | --- |
| below the threshold | SRSVVESDEL [MYPN, Q86TC9] |
